# From patent US20240025993A1, “CD19 BINDING MOLECULES AND USES THEREOF” (NOVARTIS AG, priority 2020, published 2024)
# Molecular target: human Fc gamma receptor 1A (human) (UniProt P12314)
# Test: SPR (Biacore T200), antibody amine-coupled on CM5 chip, receptor as analyte
# Chain of human Fc gamma receptor 1A (human) (P12314 16-288 limits assumed): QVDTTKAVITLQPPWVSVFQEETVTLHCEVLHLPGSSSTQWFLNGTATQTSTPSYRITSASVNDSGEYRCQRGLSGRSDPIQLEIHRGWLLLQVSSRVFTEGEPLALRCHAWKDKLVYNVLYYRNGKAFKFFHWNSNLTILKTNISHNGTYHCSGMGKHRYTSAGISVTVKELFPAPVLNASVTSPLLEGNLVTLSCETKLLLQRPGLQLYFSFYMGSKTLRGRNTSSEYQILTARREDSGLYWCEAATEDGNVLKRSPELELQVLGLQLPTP
row,Maximum response at 100 nM hFcgammaRIA (RU),Substance
1,15,"Anti-CD3 human IgG1 antibody, LALAGA Fc variant (L234A/L235A/G237A)"
2,11,"Anti-CD3 human IgG1 antibody, DANAPA Fc variant (D265A/N297A/P329A)"
3,9,"Anti-CD3 human IgG1 antibody, LALASKPA Fc variant (L234A/L235A/S267K/P329A)"
4,10,"Anti-CD3 human IgG1 antibody, GADAPASK Fc variant (G237A/D265A/P329A/S267K)"
5,13,"Anti-CD3 human IgG1 antibody, DAPASK Fc variant (D265A/P329A/S267K)"
6,16,"Anti-CD3 human IgG1 antibody, GADAPA Fc variant (G237A/D265A/P329A)"
7,18,"Anti-CD3 human IgG1 antibody, LALAPG Fc variant (L234A/L235A/P329G)"
